Results reported in patent US20160346402A1 (Bayer, published 2016).

Experiments:
[1] = biological target: T1, TPP-2305, hTNFRSF12 amino acids a28-80 (recombinant human TWEAKR protein) (human, UniProt Q9NP84 28-80); assay: SPR (Biacore T100), antibody captured, TWEAKR TPP-2305 as analyte, 1:1 model
T1 construct: Soluble monomeric antigen, injected as analyte over the captured antibodies; Bought protein
Description: The antibodies were immobilized on a CM5 sensor chip using an indirect capture reagent, anti-human IgG(Fc). Reagents of the “Human Antibody Capture Kit” (BR-1008-39, GE Healthcare Biacore, Inc.) were used as described by the manufacturer.
Sensorgrams were generated after in-line reference cell correction, followed by subtraction of the buffer sample. The dissociation constant (KD) was calculated based on the ratio of association (kₒₙ) and dissociation (koff) constants, obtained by fitting sensorgrams using a 1:1 first order binding model.

[2] = biological target: T2, hTNFRSF12 amino acids a28-80-M50A-hIgG1-Fc (human); assay: ELISA: TWEAKR-Fc construct coated at 62 ng/ml, biotinylated IgG titrated from 100 nM; token + marks IC50 of 1 to […] pM
T2 construct: TWEAKR-Fc mutein, coated on the ELISA plate; also called TPP-1988
Description: (§1) To obtain dose-reaction data, the different TWEAKR-Fc muteins were coated at a low concentration (62 ng/ml) onto a 384-well Maxisorb ELISA plate, and a serial 2-fold dilution of biotinylated IgG beginning with a concentration of 100 nM was used as a soluble binding partner. Detection was carried out using streptavidin-HRP and Amplex Red.
(§2) IgGs were biotinylated using an about 2-fold molar excess of biotin-LC-NHS (Pierce; Cat. No. 21347) according to the instructions of the manufacturer and desalted using Zeba desalting columns (Pierce; Cat. No. 89889).

[3] = biological target: T3, hTNFRSF12 amino acids a28-80-hIgG1-Fc (human); assay: as above
T3 construct: wild-type TWEAKR-Fc (dimeric Fc fusion), coated on the ELISA plate; also called TPP-599; HUMAN-TNFRSF12Aaa28-80-hIgG1-Fc
Description: as §1, §2

[4] = biological target: T4, hTNFRSF12 amino acids a28-80-T33Q-hIgG1-Fc (human); assay: as above
T4 construct: TWEAKR-Fc mutein, coated on the ELISA plate; also called TPP-1986
Description: as §1, §2

[5] = biological target: T5, hTNFRSF12 amino acids a28-80-L65Q-hIgG1-Fc (human); assay: as above
T5 construct: TWEAKR-Fc mutein, coated on the ELISA plate
Description: as §1, §2

[6] = biological target: T6, hTNFRSF12 amino acids a28-80-S40R-hIgG1-Fc (human); assay: as above
T6 construct: TWEAKR-Fc mutein, coated on the ELISA plate; also called TPP-1987
Description: as §1, §2

[7] = biological target: T7, hTNFRSF12 amino acids a28-80-H60K-hIgG1-Fc (human); assay: as above
T7 construct: TWEAKR-Fc mutein, coated on the ELISA plate; also called TPP-1989
Description: as §1, §2

Binder | Kd [1] [nM] | koff [1] [s⁻¹] | kon [1] [M⁻¹ s⁻¹] | binding result [2] | binding result [3] | binding result [4] | binding result [5] | binding result [6] | binding result [7]
P3G5(TPP-2195) (antibody, mouse IgG2a, kappa, V domains shown, Comparative antibody, murine IgG2a; variable domains from WO2009/140177 with added constant regions) VH: QVQLQQSGPEVVRPGVSVKISCKGSGYTFTDYGIHWVKQSHAKSLEWIGVISTYNGYTNYNQKFKGKATMTVDKSSSTAYMELARLTSEDSAIYYCARAYYGNLYYAMDYWGQGTSVTVSS VL: DIVLTQSPASLAVSLGQRATISCRANKSVSTSSYSYMHWYQQKPGQPPKLLIKYASNLESGVPARFSGSGSGTDFILNIHPVEEEDAATYYCQHSRELPFTFGSGTKLEIKR | 0.5 | 0.00122 | 2.31e+06 | – | – | – | – | – | –
P4A8(TPP-1324) (antibody, human IgG1, kappa, V domains shown, Comparative antibody, human IgG1; variable domains from WO2009/140177 with added constant regions) VH: QVQLVQSGAEVKKPGASVKVSCKGSGYTFTDYGMHWVRQAPGQGLEWMGVISTYNGYTNYNQKFKGRVTMTVDKSTSTAYMELRSLRSDDTAVYYCARAYYGNLYYAMDYWGQGTLVTVSS VL: DIVLTQSPASLAVSLGQRATISCRASKSVSTSSYSYMHWYQQKPGQPPKLLIKYASNLESGVPARFSGSGSGTDFSLNIHPMEEDDTAMYFCQHSRELPFTFGGGTKLEIKR | 2.3 | 0.0027 | 1.2e+06 | – | – | – | – | – | –
PDL-192(TPP-1104) (antibody, human IgG1, kappa, V domains shown, human IgG1; variable domains from WO2009/020933 with a human IgG1 constant region added; biotinylated IgG in the ELISA) VH: QVELVESGGGLVQPGGSLRLSCAASGFTFSSYWMSWVRQAPGKGLEWVAEIRLKSDNYATHYAESVKGRFTISRDDSKNSLYLQMNSLRAEDTAVYYCTGYYADAMDYWGQGTLVTVSS VL: DIQMTQSPSSLSASVGDRVTITCRASQSVSTSSYSYMHWYQQKPGKAPKLLIKYASNLESGVPSRFSGSGSGTDFTLTISSLQPEDFATYYCQHSWEIPYTFGGGTKVEIKR | – | – | – | binds | – | – | – | – | –
TPP-883 (antibody, human IgG1, kappa, V domains shown, human IgG1) VH: EVQLLESGGGLVQPGGSLRLSCAASGFTFSPYPMMWVRQAPGKGLEWVSYISPSGGKTHYADSVKGRFTISRDNSKNTLYLQMNSLRAEDTAVYYCARGGDGYFDYFDYWGQGTLVTVSS VL: DIQMTQSPATLSASVGDRVTITCRASQSISSYLNWYQQKPGKAPKLLIYAASSLQSGVPSRFSGSGSGTDFTLTISSLQPEDFATYYCQQSYSSPGITFGPGTKVEIKR | 206 | 0.91 | 4.4e+06 | – | – | – | – | – | –
TPP-2148 (antibody, human IgG1, kappa, V domains shown, human IgG1) VH: EVQLLESGGGLVQPGGSLRLSCAASGFTFSPYPMMWVRQAPGKGLEWVSYISPSGGKTHYADSVKGRFTISRDNSKNTLYLQMNSLRAEDTAVYYCARGGDTYFDYFDYWGQGTLVTVSS VL: DIQMTQSPATLSASVGDRVTITCRASQSISSYLNWYQQKPGKAPKLLIYQASSLQSGVPSRFSGSGSGTDFTLTISSLQPEDFATYYCQQSYTSPFITFGPGTKVEIKR | 24.5 | 0.13 | 5.1e+06 | – | – | – | – | – | –
TPP-1538 (antibody, human IgG1, kappa, human IgG1) light: AQDIQMTQSPATLSASVGDRVTITCRASQSISSYLNWYQQKPGKAPKLLIYAASSLQSGVPSRFSGSGSGTDFTLTISSLQPEDFATYYCQQSYSSPGITFGPGTKVEIKRTVAAPSVFIFPPSDEQLKSGTASVVCLLNNFYPREAKVQWKVDNALQSGNSQESVTEQDSKDSTYSLSSTLTLSKADYEKHKLYACEVTHQGLSSPVTKSFNRGEC heavy: not shown | 27.6 | 0.11 | 4.2e+06 | – | – | – | – | – | –
TPP-2090 (antibody, human IgG1, kappa, V domains shown, human IgG1; also called anti-TWEAKR AK-1) VH: EVQLLESGGGLVQPGGSLRLSCAASGFTFSPYPMIWVRQAPGKGLEWVSYISPSGGSTHYADSVKGRFTISRDNSKNTLYLQMNSLRAEDTAVYYCARGGDTYFDYFDYWGQGTLVTVSS VL: DIQMTQSPSSLSASVGDRVTITCRASQSISGYLNWYQQKPGKAPKLLIYQASSLQSGVPSRFSGSGSGTDFTLTISSLQPEDFATYYCQQSYTSPFITFGQGTKVEIKR | 12.4 | 0.11 | 9.1e+06 | – | – | – | – | – | –
TPP-2149 (antibody, human IgG1, kappa, V domains shown, human IgG1) VH: EVQLLESGGGLVQPGGSLRLSCAASGFTFSPYPMIWVRQAPGKGLEWVSYISPSGGKTHYADSVKGRFTISRDNSKNTLYLQMNSLRAEDTAVYYCARGGDTYFDYFDYWGQGTLVTVSS VL: DIQMTQSPATLSASVGDRVTITCRASQSISGYLNWYQQKPGKAPKLLIYQASSLQSGVPSRFSGSGSGTDFTLTISSLQPEDFATYYCQQSYTSPFITFGPGTKVEIKR | 12.1 | 0.1 | 8.4e+06 | – | – | – | – | – | –
TPP-2084 (antibody, human IgG1, kappa, V domains shown, human IgG1) VH: EVQLLESGGGLVQPGGSLRLSCAASGFTFSPYPMMWVRQAPGKGLEWVSYISPSGGSTHYADSVKGRFTISRDNSKNTLYLQMNSLRAEDTAVYYCARGGDTYFDYFDYWGQGTLVTVSS VL: not shown | 27.6 | 0.11 | 4.2e+06 | – | – | – | – | – | –
TPP-2077 (antibody, human IgG1, kappa, human IgG1) light: DIQMTQSPATLSASVGDRVTITCRASQSISSYLNWYQQKPGKAPKLLIYAASSLQSGVPSRFSGSGSGTDFTLTISSLQPEDFATYYCQQSYSSPGITFGPGTKVEIKRTVAAPSVFIFPPSDEQLKSGTASVVCLLNNFYPREAKVQWKVDNALQSGNSQESVTEQDSKDSTYSLSSTLTLSKADYEKHKLYACEVTHQGLSSPVTKSFNRGEC heavy: not shown | 28.9 | 0.086 | 3e+06 | – | – | – | – | – | –
TPP-2093 (antibody, human IgG1, kappa, V domains shown, human IgG1) VH: EVQLLESGGGLVQPGGSLRLSCAASGFTFSPYPMMWVRQAPGKGLEWVSYISPSGGSTHYADSVKGRFTISRDNSKNTLYLQMNSLRAEDTAVYYCARGGDTYFDYFDYWGQGTLVTVSS VL: DIQMTQSPSSLSASVGDRVTITCRASQSISSYLNWYQQKPGKAPKLLIYQASSLQSGVPSRFSGSGSGTDFTLTISSLQPEDFATYYCQQSYTSPFITFGQGTKVEIKR | 22.1 | 0.09 | 4.1e+06 | – | – | – | – | – | –
136.1(TPP-2194) (antibody, mouse IgG2a, kappa, V domains shown, murine IgG2a; variable domains from WO2009/020933 with a murine IgG2 constant region added; biotinylated IgG in the ELISA) VH: EVKLEESGGGLVQPGGSMKLSCVASGFTFNNYWMSWVRQSPEKGLEWLAEIRLKSDNYATHYAESVKGKFTISRDDSKSRLYLQMNNLRAENTGIYYCTGGFADYFDYWGQGTTLTVSS VL: DIVLTQSPASLTVSLGQRATISCRASQSVSTSSYSYMQWYQQRPGQPPKLLIKYATNLDSGVPARFSGSGSGTDFTLNIHPVEEEDAATYYCQHSWEIPYTFGGGTKLEIKR | – | – | – | binds | binds | binds | binds | binds | binds
18.3.3(TPP-2193) (antibody, mouse IgG2a, kappa, V domains shown, murine IgG2a; variable domains from WO2009/020933 with a murine IgG2 constant region added; biotinylated IgG in the ELISA) VH: EVKLGESGGGLVQPGGSMKLSCVASGFPFTKYWMNWVRQSPEKGLEWVAEIRLKSDNYATHYAESAKGRFTISRDDSRSSVYLQMNNLRAEDTAIYYCSPTYADTMDYWGQGTSVTVSS VL: DIVLTQSPASLAVSLGQRATISCKASQSVSTSTYSYMQWYQQRPGQSPKLLIKYASKLDSGVPARFSGSGSGTDFTLNIHPVEEEDTATYYCQHSWELPYTFGGGTRLEIKR | – | – | – | binds | binds | binds | binds | binds | binds
136.1(TPP-2194) (antibody, mouse IgG2a, kappa, V domains shown, Comparative antibody, murine IgG2a; variable domains from WO2009/020933 with added constant regions) VH: EVKLEESGGGLVQPGGSMKLSCVASGFTFNNYWMSWVRQSPEKGLEWLAEIRLKSDNYATHYAESVKGKFTISRDDSKSRLYLQMNNLRAENTGIYYCTGGFADYFDYWGQGTTLTVSS VL: DIVLTQSPASLTVSLGQRATISCRASQSVSTSSYSYMQWYQQRPGQPPKLLIKYATNLDSGVPARFSGSGSGTDFTLNIHPVEEEDAATYYCQHSWEIPYTFGGGTKLEIKR | 0.8 | 0.0324 | 3.84e+07 | – | – | – | – | – | –
18.3.3(TPP-2193) (antibody, mouse IgG2a, kappa, V domains shown, Comparative antibody, murine IgG2a; variable domains from WO2009/020933 with added constant regions) VH: EVKLGESGGGLVQPGGSMKLSCVASGFPFTKYWMNWVRQSPEKGLEWVAEIRLKSDNYATHYAESAKGRFTISRDDSRSSVYLQMNNLRAEDTAIYYCSPTYADTMDYWGQGTSVTVSS VL: DIVLTQSPASLAVSLGQRATISCKASQSVSTSTYSYMQWYQQRPGQSPKLLIKYASKLDSGVPARFSGSGSGTDFTLNIHPVEEEDTATYYCQHSWELPYTFGGGTRLEIKR | 1.7 | 0.0285 | 1.64e+07 | – | – | – | – | – | –
